Laboratory results published in article PMC3093654.

Target: alpha-thrombin (UniProt P00734;P00734 328-363;364-622)
Experiment: SPR imaging

B1: Da thrombin aptamer (ssDNA)
DNA: AGTCCGTGGTAGGGCAGGTTGGGGTGACTTTTTTTTTTTTTTTT
modifications: 3'-NH2, surface-attached to pGlu-MUAM on gold
B1: binds.
